Laboratory results as given in patent US20130251724A1 (GlaxoSmithKline, published 2013).
“And” between values parts separate entries of the source, which are not always exact repeats. Equal values may be shown once. Read-outs that look alike come from different tables or passages of the source.

Tests used:
[1] = target: T1, Human OSM (human, UniProt P13725 26-221); assay: cell-based or functional assay
T1 sequence: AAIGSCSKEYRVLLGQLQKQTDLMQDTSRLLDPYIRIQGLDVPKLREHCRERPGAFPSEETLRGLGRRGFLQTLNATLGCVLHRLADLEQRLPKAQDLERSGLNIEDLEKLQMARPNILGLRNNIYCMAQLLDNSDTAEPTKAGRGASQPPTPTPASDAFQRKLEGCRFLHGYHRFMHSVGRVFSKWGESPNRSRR

[2] = target: T2, Cynomolgus OSM (cynomolgus, UniProt A0A2K5VPC6 26-221); assay: cell-based or functional assay
T2 sequence: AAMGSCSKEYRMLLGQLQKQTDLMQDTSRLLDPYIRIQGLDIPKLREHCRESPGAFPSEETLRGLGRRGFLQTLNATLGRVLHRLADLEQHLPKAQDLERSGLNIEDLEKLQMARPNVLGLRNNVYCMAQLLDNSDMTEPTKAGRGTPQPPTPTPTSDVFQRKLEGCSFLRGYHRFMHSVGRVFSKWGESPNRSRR

[3] = target: T1, Human OSM; assay: Kinexa solution phase affinity
Protocol: (§1) Kinexa (Sapidyne Instruments 3200) solution phase affinity was used to determine the overall affinity of anti-OSM antibody H0(huCDRH1)L1 and Humanised 15E10 (an unrelated OSM antibody) to human, cynomolgus macaque, rhesus macaque and marmoset OSM (Table 15). Humanised 15E10 was added for comparison purposes.
(§2) OSM beads were prepared either by adsorption (polymethylmethacrylate beads-PMMA) or amine coupling (NHS-activated sepharose beads). The range of OSM molecules studied necessitated the generation of beads coated with different concentrations of OSM. For the solution phase portion of the assay, a fixed concentration of antibody was incubated with a broad range of OSM concentrations and allowed to reach equilibrium by incubation at r.t. for at least 2 h before analysis proceeded. The OSM beads were then used to determine the amount of free antibody present in the solution phase samples, by means of the free antibody binding to the OSM bead matrix then detected using an appropriate secondary antibody (either anti-human or anti-mouse depending on the construct being tested) labelled with a fluorescent dye. The binding curves where fitted using the Kinexa Pro analysis software inherent to the machine. Multiple runs using varying starting concentrations of antibody were then compiled and analysed using the n-curve analysis software to give a more accurate determination of affinity.

[4] = target: T2, Cynomolgus OSM; assay: Kinexa solution phase affinity
Protocol: as §1, §2

[5] = target: T3, Marmoset OSM (marmoset); assay: Kinexa solution phase affinity
T3 construct: also called Marm OSM
Protocol: as §1, §2

[6] = target: T4, Rhesus OSM (rhesus macaque, UniProt F7GF43 26-221); assay: Kinexa solution phase affinity
T4 construct: also called rhesus macaque OSM
T4 sequence: T2 sequence
Protocol: as §1, §2

[7] = target: T1, Human OSM; assay: cell-based or functional assay; remark: listed apart in the source
[8] = target: T1, Human OSM; assay: cell-based or functional assay; remark: listed apart in the source
[9] = target: T1, Human OSM; assay: cell-based or functional assay; remark: listed apart in the source
[10] = target: T1, Human OSM; assay: cell-based or functional assay; remark: listed apart in the source
[11] = target: T1, Human OSM; assay: cell-based or functional assay; remark: listed apart in the source
[12] = target: T1, Human OSM; assay: cell-based or functional assay; remark: listed apart in the source
[13] = target: T1, Human OSM; assay: cell-based or functional assay; remark: listed apart in the source
[14] = target: T1, Human OSM; assay: cell-based or functional assay; remark: listed apart in the source
[15] = target: T1, Human OSM; assay: BIAcore kinetics, purified antibody
[16] = target: T2, Cynomolgus OSM; assay: BIAcore kinetics, purified antibody
[17] = target: T1, Human OSM; assay: BIAcore kinetics, purified antibody; remark: listed apart in the source
[18] = target: T2, Cynomolgus OSM; assay: BIAcore kinetics, purified antibody; remark: listed apart in the source
[19] = target: T5, Endogenous human OSM (neutrophil-derived) (human, UniProt P13725 26-221, limits assumed); assay: gp130 ELISA with endogenous neutrophil-derived human OSM
T5 construct: Native OSM generated from GM-CSF stimulation of healthy human neutrophils; also called native OSM; endogenous OSM
T5 sequence: T1 sequence

[20] = target: T1, Human OSM; assay: BIAcore kinetics
[21] = target: T2, Cynomolgus OSM; assay: BIAcore kinetics
[22] = target: T1, Human OSM; assay: cell-based or functional assay; remark: listed apart in the source
[23] = target: T2, Cynomolgus OSM; assay: cell-based or functional assay; remark: listed apart in the source
[24] = target: T3, Marmoset OSM; assay: cell-based or functional assay
[25] = target: T1, Human OSM; assay: human gp130 ELISA, inhibition of OSM binding to gp130
[26] = target: T2, Cynomolgus OSM; assay: as above
[27] = target: T1, Human OSM; assay: BIAcore kinetics; remark: listed apart in the source
[28] = target: T2, Cynomolgus OSM; assay: BIAcore kinetics; remark: listed apart in the source
[29] = target: T1, Human OSM; assay: BIAcore kinetics; remark: listed apart in the source
[30] = target: T2, Cynomolgus OSM; assay: BIAcore kinetics; remark: listed apart in the source
[31] = target: T1, Human OSM; assay: cell-based or functional assay; remark: listed apart in the source
[32] = target: T1, Human OSM; assay: cell-based or functional assay; remark: listed apart in the source
[33] = target: T2, Cynomolgus OSM; assay: cell-based or functional assay; remark: listed apart in the source
[34] = target: T3, Marmoset OSM; assay: cell-based or functional assay; remark: listed apart in the source
[35] = target: T1, Human OSM; assay: cell-based or functional assay; remark: listed apart in the source
[36] = target: T1, Human OSM; assay: human gp130 ELISA, inhibition of OSM binding to gp130; remark: listed apart in the source
[37] = target: T2, Cynomolgus OSM; assay: as above; remark: listed apart in the source
[38] = target: T5, Endogenous human OSM …; assay: gp130 ELISA with endogenous neutrophil-derived human OSM; remark: listed apart in the source

B1: 15E10h, non-competitive anti-OSM humanised antibody (antibody, human IgG1, kappa, V domains shown)
VH: QVQLVESGGGVVQPGRSLRLSCAASGFSLTNYGVHWVRQAPGKGLEWVAVIWRGGSTDYNAAFMSRFTISKDNSKNTLYLQMNSLRAEDTAVYYCAKSPNSNFYWYFDVWGRGTLVTVSS
VL: EIVLTQSPATLSLSPGERATLSCSGSSSVSYMYWYQQKPGQAPRLLIEDTSNLASGIPARFSGSGSGTDYTLTISNLEPEDFAVYYCQQWSSYPPTFGQGTKLEIKR
notes: also called Humanised 15E10; humanised 15E10
[1]
  KB cell neutralisation assay, mean IC50: 0.0391 µg/ml and 261 pM
[2]
  KB cell neutralisation assay, mean IC50: 0.0054 µg/ml and 36 pM
[3]
  Kd: 0.727 nM
[4]
  Kd: 0.102 nM
[5]
  Kd: 6.1 nM
[6]
  Kd: 0.102 nM
[7]
  IC50 (read off the curve); IL-6 release from HFLS-RA cells stimulated with 0.3 ng/ml human OSM: ~0.1 nM
[8]
  IC50 (read off the curve); IL-6 release from HFLS-RA cells stimulated with 3 ng/ml human OSM: ~2 nM
[9]
  IC50 (read off the curve); MCP-1 release from HFLS-RA cells stimulated with 0.3 ng/ml human OSM: ~0.2 nM
[10]
  IC50 (read off the curve); MCP-1 release from HFLS-RA cells stimulated with 3 ng/ml human OSM: ~2 nM
[11]
  IC50 (read off the curve); MCP-1 release from normal human lung fibroblasts stimulated with 3 ng/ml OSM: ~1 µg/mL
[12]
  IC50 (read off the curve); MCP-1 release from IPF human lung fibroblasts stimulated with 3 ng/ml OSM: ~2 µg/mL
[13]
  IC50 (read off the curve); IL-6 release from normal human lung fibroblasts stimulated with 3 ng/ml OSM: ~0.6 µg/mL
[14]
  IC50 (read off the curve); IL-6 release from IPF human lung fibroblasts stimulated with 3 ng/ml OSM: ~1 µg/mL
[15]
  Kd: 1.43 nM
  koff: 0.000615 s⁻¹
  kon: 429000 M⁻¹ s⁻¹
[16]
  Kd: 0.59 nM
  koff: 0.00031 s⁻¹
  kon: 526000 M⁻¹ s⁻¹
[17]
  Kd: 0.882 nM
  koff: 0.000649 s⁻¹
  kon: 736000 M⁻¹ s⁻¹
[18]
  Kd: 0.64 nM
  koff: 0.000324 s⁻¹
  kon: 507000 M⁻¹ s⁻¹
[19]
  IC50: 0.076 µg/mL and 0.507 nM

B2: 2B7, murine anti-OSM mAb (antibody, V domains shown)
VH: EVQLVESGGGLVKPGGSLKLSCAASGFTFSNYAMSWVRQTPEKRLEWVATISDGGGYTYYLDNGQGRFTISRDNAKNNLYLQMSHLKSEDTAMYYCARDVGLTTFWYFDVWGTGTTVTVSS
VL: DIVLTQSPVSLVISLGQRATISCRASKSVSPSSYNFMHWYQQRPGQPPKLLITYASNLESGVPARFSGSGSGTDFTLNIHPVEEEDAATYYCQHSREFPFTFGGGTRLEIK
notes: Mouse hybridoma mAb; also called 2B7/A6; 2B7.A6
[20]
  Kd: 2.09 nM
[21]
  Kd: 9.31 nM
[22]
  KB cell neutralisation assay, mean IC50: 0.049 µg/ml and 327 pM
[23]
  KB cell neutralisation assay, mean IC50: 0.344 µg/ml and 2.3 nM
[24]
  IC50 (read off the curve); IL-6 release from KB cells stimulated with marmoset OSM: ~0.05 µg/mL
[25]
  IC50: 0.08 µg/mL and 0.533 nM
[26]
  IC50: 0.14 µg/mL and 0.993 nM

B3: anti human OSM mAb S168110G08(1)1A09 (10G8), murine (antibody, V domains shown)
VH: EMQLVESGEGLVEPGGSLKLSCAASGFTFSNYAMSWVRQTPEKSLEWVATISDGGSFTYYLDNVRGRFTISRDNAKNNLYLQMSHLKSDDTAMYYCARDVGHTTFWYFDVWGSGTAVTVSS
VL: DIVLTQSPVFLVVSLGQRATISCRASKSVSAAGYNFMHWYQQKPGQPPKVLIKYASNLESGVPARFSGSGSGTDFTLNIHPVEEEDAVTYYCLHSREFPFTFGGGTNLEIK
notes: Mouse hybridoma mAb; also called 10G8/A9; 10G8.A9
[27]
  fold increased affinity compared with 15E10: 8 fold
[28]
  fold increased affinity compared with 15E10: 11 fold
[20]
  Kd: 0.55 nM
[21]
  Kd: 0.308 nM
[29]
  Kd: 0.549 nM
  koff: 6.14e-05 s⁻¹
  kon: 112000 M⁻¹ s⁻¹
[30]
  Kd: 0.308 nM
  koff: 2.99e-05 s⁻¹
  kon: 96900 M⁻¹ s⁻¹
[31]
  KB cell neutralisation assay, potency compared with 15E10: 15 fold
[22]
  KB cell neutralisation assay, mean IC50: 0.008 µg/ml and 53 pM
[23]
  KB cell neutralisation assay, mean IC50: 0.006 µg/ml and 40 pM
[32]
  KB cell neutralisation assay, mean IC50: 0.054 µg/ml and 360 pM
[33]
  KB cell neutralisation assay, mean IC50: 0.034 µg/ml and 227 pM
[1]
  KB cell neutralisation assay, mean IC50: 0.0026 µg/ml and 17 pM
[2]
  KB cell neutralisation assay, mean IC50: 0.0017 µg/ml and 11 pM
[34]
  KB cell neutralisation assay, mean IC50: 0.0017 µg/ml and 11 pM
[35]
  IC50 (read off the curve); IL-6 release from KB cells stimulated with human OSM, 25% human AB serum: ~0.02 µg/mL
[25]
  IC50: 0.06 µg/mL and 0.4 nM
[26]
  IC50: 0.01 µg/mL and 0.04 nM
[36]
  IC50: 0.044 µg/mL and 0.293 nM
[37]
  IC50: 0.017 µg/mL and 0.113 nM
[38]
  IC50: 0.009 µg/mL and 0.06 nM
[19]
  IC50: 0.009 µg/mL and 0.06 nM
